The assay concerns the target SARS-CoV-2 Spike protein (SARS-CoV-2), P0DTC2. The assay can be described thus: cell-based or functional assay.

No end group written: not given here.

B1: Bf APC/B3E (peptide)
peptide: DISQINASVVNIEYEIXKLEEVAXKLEESLIDLQELGSGSGC
modifications: not fully specified (C-terminus); also: α/β-peptide, β-residue positions not given here
B1 registered an inhibition of S-mediated cell-cell fusion (β-Gal complementation), IC50 of 0.05 µM.
